The numbers were not newly measured in paper PMC11987431, which cites them from elsewhere.

What is called Kd is the free concentration of one partner at which half of the binding sites on the other are occupied at equilibrium, for simple one-to-one binding.

This series addresses IL-6 receptor (Rattus norvegicus) (UniProt P22273).
Chain of UniProt P22273 (P22273 20-364, chain 1 of 2): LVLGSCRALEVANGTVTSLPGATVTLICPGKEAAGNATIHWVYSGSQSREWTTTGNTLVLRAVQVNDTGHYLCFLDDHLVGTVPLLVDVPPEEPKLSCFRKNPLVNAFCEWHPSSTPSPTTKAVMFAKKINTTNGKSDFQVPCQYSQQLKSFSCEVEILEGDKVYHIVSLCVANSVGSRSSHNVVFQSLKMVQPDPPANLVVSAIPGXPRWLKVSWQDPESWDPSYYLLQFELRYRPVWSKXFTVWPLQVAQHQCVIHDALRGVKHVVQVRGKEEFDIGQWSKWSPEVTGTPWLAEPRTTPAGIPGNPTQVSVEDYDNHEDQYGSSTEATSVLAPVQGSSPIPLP
Chain of UniProt P22273 (P40190 23-618, chain 2 of 2, further chain): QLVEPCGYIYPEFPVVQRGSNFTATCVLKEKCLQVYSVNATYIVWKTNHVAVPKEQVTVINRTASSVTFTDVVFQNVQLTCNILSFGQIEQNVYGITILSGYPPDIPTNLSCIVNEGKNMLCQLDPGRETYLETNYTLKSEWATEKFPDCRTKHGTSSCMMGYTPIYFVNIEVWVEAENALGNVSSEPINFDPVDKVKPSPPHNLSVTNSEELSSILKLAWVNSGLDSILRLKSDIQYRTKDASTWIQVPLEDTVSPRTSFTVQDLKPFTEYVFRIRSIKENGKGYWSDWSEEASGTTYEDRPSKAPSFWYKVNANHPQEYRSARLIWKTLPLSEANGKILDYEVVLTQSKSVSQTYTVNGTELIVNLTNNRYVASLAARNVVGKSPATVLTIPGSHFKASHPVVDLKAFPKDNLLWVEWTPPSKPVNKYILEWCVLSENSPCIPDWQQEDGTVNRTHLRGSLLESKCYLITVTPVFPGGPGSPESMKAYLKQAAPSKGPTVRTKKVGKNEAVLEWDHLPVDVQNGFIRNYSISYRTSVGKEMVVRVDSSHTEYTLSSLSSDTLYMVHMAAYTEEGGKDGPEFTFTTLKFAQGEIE

Chain of IL-6 (P20607 25-211): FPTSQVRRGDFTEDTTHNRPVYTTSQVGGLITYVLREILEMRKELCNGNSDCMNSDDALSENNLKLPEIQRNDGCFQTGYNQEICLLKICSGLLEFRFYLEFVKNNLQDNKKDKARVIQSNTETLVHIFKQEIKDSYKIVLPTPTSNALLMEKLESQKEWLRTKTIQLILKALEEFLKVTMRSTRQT

Turning to IL-6 (from UniProt P20607), the Kd is 0.015 nM.
